The results in this text go back to the Human Domainome abundance scans (Beltran et al. 2025).

± gives the uncertainty stated by the source.

The labels stand for the following.
B1: Homeobox protein cut-like 1, residues 548 to 629; numbered along this chain, P39880 (parent)
chain: GEEMDTAEIARQVKEQLIKHNIGQRIFGHYVLGLSQGSVSEILARPKPWNKLTVRGKEPFHKMKQFLSDEQNILALRSIQGR

In the data set the parent is B1. Description: abundance fitness (aPCA) (normalised: wild type 0, dead -1); higher = more abundant; growth selection in yeast, the domain comes from the species named. Conditions: Homo sapiens.
Take GEEMDTAEIARQVKEQLIKHNIGQRIFGHYVLGLSQGSVSEILARPKPWNKLTVRGKEPFHKMKQFLHDEQNILALRSIQGR: the abundance fitness was -0.292 ± 0.061.
As to GEEMDTAEIARQVKEQLIKHNIGQRIFGHYVLGLSQGSVSEILARPKPWNKLTVRGKEPFHKMKQFLTDEQNILALRSIQGR, the abundance fitness was -0.122 ± 0.038.
As for GEEMDTAEIARQVKEQLIKHNIGQRIFGHYVLGLSQGSVSEILARPKPWNKLTVRGKEPFHKMKQFLADEQNILALRSIQGR, the abundance fitness was -0.041 ± 0.031.
With GEEMDTAEIARQVKEQLIKHNIGQRIFGHYVLGLSQGSVSEILARPKPWNKLTVRGKEPFHKMKQFLMDEQNILALRSIQGR, the abundance fitness is -0.083 ± 0.037.
As to GEEMDTAEIARQVKEQLIKHNIGQRIFGHYVLGLSQGSVSEILARPKPWNKLTVRGKEPFHKMKQFLQDEQNILALRSIQGR, the abundance fitness was -0.049 ± 0.038.
With GEEMDTAEIARQVKEQLIKHNIGQRIFGHYVLGLSQGSVSEILARPKPWNKLTVRGKEPFHKMKQFLYDEQNILALRSIQGR, the abundance fitness is -0.297 ± 0.068.
Turning to GEEMDTAEIARQVKEQLIKHNIGQRIFGHYVLGLSQGSVSEILARPKPWNKLTVRGKEPFHKMKQFLFDEQNILALRSIQGR, the abundance fitness is -0.187 ± 0.06.
GEEMDTAEIARQVKEQLIKHNIGQRIFGHYVLGLSQGSVSEILARPKPWNKLTVRGKEPFHKMKQFLVDEQNILALRSIQGR: the abundance fitness was -0.304 ± 0.032.
Regarding GEEMDTAEIARQVKEQLIKHNIGQRIFGHYVLGLSQGSVSEILARPKPWNKLTVRGKEPFHKMKQFLLDEQNILALRSIQGR, the abundance fitness is -0.088 ± 0.031.
In the case of GEEMDTAEIARQVKEQLIKHNIGQRIFGHYVLGLSQGSVSEILARPKPWNKLTVRGKEPFHKMKQFLIDEQNILALRSIQGR it was -0.198 ± 0.06.
For the variant GEEMDTAEIARQVKEQLIKHNIGQRIFGHYVLGLSQGSVSEILARPKPWNKLTVRGKEPFHKMKQFLPDEQNILALRSIQGR, the abundance fitness is -0.656 ± 0.065.
In the case of GEEMDTAEIARQVKEQLIKHNIGQRIFGHYVLGLSQGSVSEILARPKPWNKLTVRGKEPFHKMKQFLKDEQNILALRSIQGR, the abundance fitness is -0.023 ± 0.036.
Regarding GEEMDTAEIARQVKEQLIKHNIGQRIFGHYVLGLSQGSVSEILARPKPWNKLTVRGKEPFHKMKQFLWDEQNILALRSIQGR, the abundance fitness was -0.4 ± 0.039.
Turning to GEEMDTAEIARQVKEQLIKHNIGQRIFGHYVLGLSQGSVSEILARPKPWNKLTVRGKEPFHKMKQFLEDEQNILALRSIQGR, the abundance fitness is 0.013 ± 0.036.
As to GEEMDTAEIARQVKEQLIKHNIGQRIFGHYVLGLSQGSVSEILARPKPWNKLTVRGKEPFHKMKQFLRDEQNILALRSIQGR, the abundance fitness was -0.157 ± 0.027.
As to GEEMDTAEIARQVKEQLIKHNIGQRIFGHYVLGLSQGSVSEILARPKPWNKLTVRGKEPFHKMKQFLCDEQNILALRSIQGR, the abundance fitness was -0.133 ± 0.041.
Consider GEEMDTAEIARQVKEQLIKHNIGQRIFGHYVLGLSQGSVSEILARPKPWNKLTVRGKEPFHKMKQFLDDEQNILALRSIQGR, for which the abundance fitness was -0.02 ± 0.043.
For GEEMDTAEIARQVKEQLIKHNIGQRIFGHYVLGLSQGSVSEILARPKPWNKLTVRGKEPFHKMKQHLSDEQNILALRSIQGR, the abundance fitness was -0.966 ± 0.14.
For the variant GEEMDTAEIARQVKEQLIKHNIGQRIFGHYVLGLSQGSVSEILARPKPWNKLTVRGKEPFHKMKQYLSDEQNILALRSIQGR, the abundance fitness is -0.924 ± 0.18.
As for GEEMDTAEIARQVKEQLIKHNIGQRIFGHYVLGLSQGSVSEILARPKPWNKLTVRGKEPFHKMKQNLSDEQNILALRSIQGR, the abundance fitness is -0.781 ± 0.13.
The same measure for GEEMDTAEIARQVKEQLIKHNIGQRIFGHYVLGLSQGSVSEILARPKPWNKLTVRGKEPFHKMKQWLSDEQNILALRSIQGR: 0.116 ± 0.029; for GEEMDTAEIARQVKEQLIKHNIGQRIFGHYVLGLSQGSVSEILARPKPWNKLTVRGKEPFHKMKQSLSDEQNILALRSIQGR: -0.829 ± 0.065.
With GEEMDTAEIARQVKEQLIKHNIGQRIFGHYVLGLSQGSVSEILARPKPWNKLTVRGKEPFHKMKQILSDEQNILALRSIQGR, the abundance fitness was -0.573 ± 0.13.
As for GEEMDTAEIARQVKEQLIKHNIGQRIFGHYVLGLSQGSVSEILARPKPWNKLTVRGKEPFHKMKQKLSDEQNILALRSIQGR, the abundance fitness is -0.829 ± 0.063.
The same measure for GEEMDTAEIARQVKEQLIKHNIGQRIFGHYVLGLSQGSVSEILARPKPWNKLTVRGKEPFHKMKQELSDEQNILALRSIQGR: -0.887 ± 0.055; for GEEMDTAEIARQVKEQLIKHNIGQRIFGHYVLGLSQGSVSEILARPKPWNKLTVRGKEPFHKMKQPLSDEQNILALRSIQGR: -0.77 ± 0.089.
Turning to GEEMDTAEIARQVKEQLIKHNIGQRIFGHYVLGLSQGSVSEILARPKPWNKLTVRGKEPFHKMKQCLSDEQNILALRSIQGR, the abundance fitness is -0.963 ± 0.14.
The same measure for GEEMDTAEIARQVKEQLIKHNIGQRIFGHYVLGLSQGSVSEILARPKPWNKLTVRGKEPFHKMKQALSDEQNILALRSIQGR: -0.758 ± 0.048; for GEEMDTAEIARQVKEQLIKHNIGQRIFGHYVLGLSQGSVSEILARPKPWNKLTVRGKEPFHKMKQLLSDEQNILALRSIQGR: -0.662 ± 0.046.
Turning to GEEMDTAEIARQVKEQLIKHNIGQRIFGHYVLGLSQGSVSEILARPKPWNKLTVRGKEPFHKMKQQLSDEQNILALRSIQGR, the abundance fitness is -0.791 ± 0.063.
In the case of GEEMDTAEIARQVKEQLIKHNIGQRIFGHYVLGLSQGSVSEILARPKPWNKLTVRGKEPFHKMKQMLSDEQNILALRSIQGR, the abundance fitness was -0.648 ± 0.054.
With GEEMDTAEIARQVKEQLIKHNIGQRIFGHYVLGLSQGSVSEILARPKPWNKLTVRGKEPFHKMKQGLSDEQNILALRSIQGR, the abundance fitness is -0.934 ± 0.041.
Take GEEMDTAEIARQVKEQLIKHNIGQRIFGHYVLGLSQGSVSEILARPKPWNKLTVRGKEPFHKMKQRLSDEQNILALRSIQGR: the abundance fitness is -1.04 ± 0.049.
